Source: publication PMC10070233 (Cellular and Molecular Life Sciences: CMLS, 2023)

Assays:
Test in all cases: BLI; kinetics: FGFRs-Fc (25 μg/mL) immobilised on Protein-A sensors, galectins 0.2-6 μM; heterogeneous ligand (2:1) model
Settings in all cases: both partners purified
[1] = target: T1, extracellular region of FGFR2 fused to the Fc fragment of human IgG1 (human, UniProt P21802 22-377, N-glycosylated (eight putative N-glycosylation sites))
T1 construct: FGFR2, extracellular region; also called FGFR2-Fc; source: CHO cells, purified (Protein A Sepharose)
T1 sequence (P21802 22-377): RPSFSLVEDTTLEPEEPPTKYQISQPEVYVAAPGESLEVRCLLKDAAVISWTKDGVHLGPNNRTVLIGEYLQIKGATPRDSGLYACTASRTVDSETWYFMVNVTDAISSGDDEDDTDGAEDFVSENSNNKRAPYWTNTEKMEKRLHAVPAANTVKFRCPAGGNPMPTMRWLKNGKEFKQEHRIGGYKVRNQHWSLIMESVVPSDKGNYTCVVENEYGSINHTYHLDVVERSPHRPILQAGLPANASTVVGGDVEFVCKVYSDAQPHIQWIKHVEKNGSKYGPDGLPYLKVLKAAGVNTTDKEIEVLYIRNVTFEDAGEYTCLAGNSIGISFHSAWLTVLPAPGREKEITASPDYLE

[2] = target: T2, extracellular region of FGFR4 fused to the Fc fragment of human IgG1 (human, UniProt P22455 22-369, N-glycosylated (five putative N-glycosylation sites))
T2 construct: FGFR4, extracellular region; also called FGFR4-Fc; source: CHO cells, purified (Protein A Sepharose)
T2 sequence (looked up): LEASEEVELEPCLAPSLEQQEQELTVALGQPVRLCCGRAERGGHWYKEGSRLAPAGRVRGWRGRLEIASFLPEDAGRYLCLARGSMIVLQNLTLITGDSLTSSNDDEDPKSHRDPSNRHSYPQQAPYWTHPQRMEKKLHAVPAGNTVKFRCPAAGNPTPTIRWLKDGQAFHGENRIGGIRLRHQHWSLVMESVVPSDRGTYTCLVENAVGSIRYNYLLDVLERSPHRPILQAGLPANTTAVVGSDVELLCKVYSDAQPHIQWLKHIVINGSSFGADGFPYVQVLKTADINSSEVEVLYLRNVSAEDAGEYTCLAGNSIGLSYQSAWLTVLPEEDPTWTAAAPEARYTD

[3] = target: T3, extracellular region of FGFR1 fused to the Fc fragment of human IgG1 (human, UniProt P11362 22-376, N-glycosylated (eight N-glycosylation sites))
T3 construct: FGFR1, extracellular region with domains D1, D2 and D3; also called FGFR1-Fc; FGFR1.Fc; source: CHO cells, purified (Protein A Sepharose)
T3 sequence (looked up): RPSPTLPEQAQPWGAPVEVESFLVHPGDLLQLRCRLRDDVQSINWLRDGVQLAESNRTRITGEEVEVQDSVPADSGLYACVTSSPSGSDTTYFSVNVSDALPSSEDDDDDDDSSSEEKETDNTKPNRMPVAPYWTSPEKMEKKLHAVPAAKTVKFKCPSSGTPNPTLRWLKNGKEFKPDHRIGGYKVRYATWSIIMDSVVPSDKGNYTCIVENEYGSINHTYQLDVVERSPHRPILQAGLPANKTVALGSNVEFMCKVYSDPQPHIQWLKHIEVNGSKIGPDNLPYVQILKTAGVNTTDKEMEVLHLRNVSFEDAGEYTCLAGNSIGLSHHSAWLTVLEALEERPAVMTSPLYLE

[4] = target: T4, extracellular region of FGFR3 fused to the Fc fragment of human IgG1 (human, UniProt P22607 23-375, N-glycosylated (six putative N-glycosylation sites))
T4 construct: FGFR3, extracellular region; also called FGFR3-Fc; source: CHO cells, purified (Protein A Sepharose)
T4 sequence (looked up): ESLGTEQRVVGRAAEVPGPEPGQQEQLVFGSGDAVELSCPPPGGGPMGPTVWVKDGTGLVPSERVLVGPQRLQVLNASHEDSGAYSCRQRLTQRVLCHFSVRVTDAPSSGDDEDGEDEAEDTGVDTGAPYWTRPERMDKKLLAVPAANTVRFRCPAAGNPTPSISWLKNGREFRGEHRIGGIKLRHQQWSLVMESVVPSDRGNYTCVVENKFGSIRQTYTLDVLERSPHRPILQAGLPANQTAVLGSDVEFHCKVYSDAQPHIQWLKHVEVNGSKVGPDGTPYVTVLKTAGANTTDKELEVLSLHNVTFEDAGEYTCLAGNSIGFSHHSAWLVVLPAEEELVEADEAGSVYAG

B1: galectin-8 (natural protein, human, UniProt O00214 1-317, looked up)
chain: MMLSLNNLQNIIYNPVIPFVGTIPDQLDPGTLIVIRGHVPSDADRFQVDLQNGSSMKPRADVAFHFNPRFKRAGCIVCNTLINEKWGREEITYDTPFKREKSFEIVIMVLKDKFQVAVNGKHTLLYGHRIGPEKIDTLGIYGKVNIHSIGFSFSSDLQSTQASSLELTEISRENVPKSGTPQLRLPFAARLNTPMGPGRTVVVKGEVNANAKSFNVDLLAGKSKDIALHLNPRLNIKAFVRNSFLQESWGEEERNITSFPFSPGMYFEMIIYCDVREFKVAVNGVHSLEYKHRFKELSSIDTLEINGDIHLLEVRSW
notes: galectin-8, human; the C-CRD construct ends at Trp317, which fits the form of 317 residues; also called gal-8; full-length galectin-8; source: E. coli BL21 CodonPlus(DE3)-RIL, purified (Ni-NTA); not shown: His tag, N-terminal, kept
Q: Which KD1 [1] does the source give for B1 here?
A: Its KD1 is 3.8 µM.

Q: And the KD2 [1]?
A: The KD2 was 141 nM.

Q: And the Koff1 [1]?
A: Its Koff1 is 0.0312 s⁻¹.

Q: And the Koff2 [1]?
A: Its Koff2 is 0.00493 s⁻¹.

Q: What about the Kon1 [1] of the same binder?
A: Its Kon1 is 13200 M⁻¹ s⁻¹.

Q: What about the Kon2 [1] of the same binder?
A: The Kon2 was 35100 M⁻¹ s⁻¹.

Q: What about the KD1 [2] of the same binder?
A: The KD1 was 24.3 nM.

Q: And the KD2 [2]?
A: Its KD2 is 249 nM.

Q: And the Koff1 [2]?
A: Its Koff1 is 0.000929 s⁻¹.

Q: What about the Koff2 [2] of the same binder?
A: Its Koff2 is 0.0161 s⁻¹.

Q: And the Kon1 [2]?
A: The Kon1 was 38700 M⁻¹ s⁻¹.

Q: And the Kon2 [2]?
A: Its Kon2 is 65100 M⁻¹ s⁻¹.

Q: And the KD1 [3]?
A: The KD1 was 0.95 µM.

Q: What about the KD2 [3] of the same binder?
A: Its KD2 is 194 nM.

Q: And the Koff1 [3]?
A: Its Koff1 is 0.0225 s⁻¹.

Q: And the Koff2 [3]?
A: The Koff2 was 0.000766 s⁻¹.

Q: And the Kon1 [3]?
A: Its Kon1 is 25200 M⁻¹ s⁻¹.

Q: What about the Kon2 [3] of the same binder?
A: The Kon2 was 8820 M⁻¹ s⁻¹.

Q: And the KD1 [4]?
A: Its KD1 is 174 nM.

Q: What about the KD2 [4] of the same binder?
A: The KD2 was 63 nM.

Q: And the Koff1 [4]?
A: Its Koff1 is 0.0289 s⁻¹.

Q: And the Koff2 [4]?
A: Its Koff2 is 0.000855 s⁻¹.

Q: What about the Kon1 [4] of the same binder?
A: The Kon1 was 167000 M⁻¹ s⁻¹.

Q: What about the Kon2 [4] of the same binder?
A: The Kon2 was 14500 M⁻¹ s⁻¹.

B2: N-terminal carbohydrate recognition domain of galectin-8 fused to the AviTag (domain or fragment, human, UniProt O00214 1-152, looked up)
chain: MMLSLNNLQNIIYNPVIPFVGTIPDQLDPGTLIVIRGHVPSDADRFQVDLQNGSSMKPRADVAFHFNPRFKRAGCIVCNTLINEKWGREEITYDTPFKREKSFEIVIMVLKDKFQVAVNGKHTLLYGHRIGPEKIDTLGIYGKVNIHSIGFS
notes: galectin-8, human, N-CRD, residues Met1-Ser152; also called gal-8N-CRD; gal-8_(N-CRD); source: E. coli BL21(DE3) pLysS, purified (Ni-NTA); not shown: AviTag, C-terminal, kept
Q: Which results are given for B2?
A: KD1 [3]: 2.6 µM; KD2 [3]: 17 nM; Koff1 [3]: 0.164 s⁻¹; Koff2 [3]: 0.000194 s⁻¹; Kon1 [3]: 165000 M⁻¹ s⁻¹; Kon2 [3]: 429000 M⁻¹ s⁻¹
